Earlier results in publication PMC4192513, “A Novel Protein-Protein Interaction in the RES (REtention and Splicing) Complex” (The Journal of Biological Chemistry, 2014).
“Also recorded” adds a separate entry of the source.

Test system: RES complex (Snu17p, Bud13p, Pml1p)
Conditions: ref [4]
Text: Previous biochemical analyses have shown that Snu17p binds Bud13p directly ([4], [6]). Based on a mutational analysis of the invariant Bud13p Trp^232 residue ([6]), the interaction of Bud13p with the Snu17p RRM has been proposed to resemble a typical UHM-ULM interaction. […] The structural findings are consistent with our initial mutagenesis analysis, which was guided by the recognition features described for the UHM family.

B1: W232A: single W232A mutant of Bud13p, from ref [4] (protein, UniProt P46947 1-266, looked up, variant W232A)
Pre-mRNA-splicing factor CWC26: MALHQYLSETYGPTKPKNKTKKKKKESKSDANSDKTSLIVKERLSTLQQEQEKSGVASFSKFDKQKSKNIWKNLETNELSHAITHPSASSITGNESKNDLKEIRAQEPLVTVADKSKTRKTIYRDAQGHKIQEDSKIDDSSFSRSKYEDEKAAEREQYLKNLNMGDVQKLGINVDAHDKKKNQTASSLTIEDPAITFTHDKERTVKTSLLGRKLYDKPAPENRFAIMPGSRADGVHRSNGFEEKWFAKQNEINEKKVQSYTLQEDY
  interaction with Snu17p / complex formation of W232A mutant: did not abolish its interaction with Snu17p; also recorded: did not prevent complex formation
